Consider 167 variants from the RNAGym collection of RNA variant scans (doi:10.7554/elife.90254).

To fix the notation:
B1: OR4K15 (parent)
chain: GUUAACGGUCAUAGGCCAUGGAAACUAGGAGCACCAUUUCGCUGCCAGUGAAGAAAUGAACAAAGAAAAUCUGGGCCAGGCAGGCAUCAAAAGAAAUAGUCUUGCGCUCAACCAGAAAGUCUGUAAUCAUUUUAAGGGUA

The variants in the series derive from B1. Briefly: self-cleavage, relative activity (ratio to wild type); higher = more cleavage; in vitro, sequencing; the parent is a self-cleaving ribozyme.
Regarding A5G A47C, the self-cleavage is 1.22.
For A5G A47G the value was 1.37; for A4G A95G, 1.4; for A4G A95C, 1.49.
On to A5G A54G, for which the self-cleavage is 1.04.
Regarding A5G A54U, the self-cleavage stood at 0.83.
For the variant A5G A89G, the self-cleavage was found to be 1.23.
Consider U3C A98U, for which the self-cleavage amounted to 2.88.
With A4G A69C, the self-cleavage was 0.53.
Regarding A4G A69U, the self-cleavage came to 1.14.
To A4G A69G belongs 1.31.
For A4U A24G the value was 0.76.
For A5U A27G the value was 2.05; for A5C, 1.21; for A5G, 0.92.
With A5U, the self-cleavage was found to be 1.1.
Take A4G A33U: the self-cleavage came to 0.59.
A5U U49A: the self-cleavage came to 1.79.
Consider A5U U37G, for which the self-cleavage was 1.
For A5U U37C the value was 0.72.
For A5G A66G the value was 0.87; for A5G G73A, 0.21; for A5C A134U, 2.1.
For A5C U108A the value was 0.07; for U3C U39C, 1.15; for A5G A78U, 0.46.
For A5G A78G, the self-cleavage is 0.43.
Turning to A5G A56G, the self-cleavage was 0.66.
For U3A U102C the value was 1.99; for A4G A56G, 1.02; for A5U A78G, 0.44.
As for A5U A118G, the self-cleavage was found to be 0.83.
For A5C U103C the value was 1.39; for U3C A135G, 0.99.
To U3C A125U belongs 0.83.
To U3C A125G belongs 0.74.
Turning to A5C A66G, the self-cleavage was 2.49.
A5G A67G: the self-cleavage came to 0.89.
A5G A67C: the self-cleavage is 0.63.
As to U3C A60C, the self-cleavage amounted to 0.91.
To A5U A52G belongs 1.18; to A4G A89G, 1.34.
To U3C A52G belongs 1.1; to A5G A140U, 1.38; to U3C A69G, 1.6.
With U3G U37C, the self-cleavage worked out at 1.52.
With U3G A59G, the self-cleavage turned out to be 0.68.
To C6A A111G belongs 0.08; to A5G A90C, 1.08.
For A5G A90G, the self-cleavage was found to be 1.11.
A4U U72A: the self-cleavage came to 0.28.
Consider U3C A33G, for which the self-cleavage stood at 0.79.
For U3C U131C the value was 0.51; for A5G A13G, 0.89.
For A5G A13U the value was 0.95.
To U3C A134U belongs 0.67; to A5U A66G, 1.27; to A5G A36U, 1.13.
On to C6A A117G, for which the self-cleavage came out at 0.6.
For A4U A95G the value was 1.65; for A5U U130C, 0.85; for A5U A82U, 0.38.
To A5G U19C belongs 0.96; to A5G U19A, 0.53; to C6A U57C, 0.36.
Consider A5U U43C, for which the self-cleavage is 1.2.
A5U U43G: the self-cleavage was determined as 1.19.
To A5G U70C belongs 0.82; to A4U A63G, 0.87; to A5G G15U, 0.82.
Consider A5U U70A, for which the self-cleavage turned out to be 1.23.
For A5G U9C the value was 0.82; for A5G U38G, 1.02.
On to U3C C25U, for which the self-cleavage was 1.05.
To C6A A68G belongs 1.14; to A5U U132C, 1.4; to A5U U127C, 1.03.
Regarding A4U U57C, the self-cleavage was 0.65.
For A4U U57A the value was 1.53.
With A5G A68G, the self-cleavage came out at 0.89.
To U3G belongs 1.07; to U3C, 1.1; to A5U U108C, 0.04.
Take A5U U97C: the self-cleavage was 0.
For U3C A91G the value was 0.84; for U3C A91C, 0.84; for U3C A91U, 1.11.
As for A5G A86G, the self-cleavage came out at 0.63.
To A5G A86U belongs 1.27; to U3C A95G, 1.02; to A4G A24C, 1.03.
To U3C U130A belongs 1.27; to A5G C121A, 1.89.
To A5G C121U belongs 1.14; to U3C A22U, 1.12.
With U3C A117U, the self-cleavage is 1.02.
To C6G belongs 1.83.
Take C6U: the self-cleavage amounted to 0.75.
C6A: the self-cleavage is 1.28.
For A5G U97C the value was 1.25; for A5G U49C, 0.97; for U3G A66G, 1.01.
For U3C A89C the value was 0.91.
For A5U U103C the value was 0.83.
As for A5G A94U, the self-cleavage was found to be 0.8.
As for A5G A94G, the self-cleavage worked out at 1.
For A5G A27U the value was 0.96; for U3A U70C, 1.14.
Take C6A U49C: the self-cleavage came out at 0.74.
As to A5U A33C, the self-cleavage turned out to be 1.62.
To A5U A33G belongs 0.69.
To A5U A110G belongs 0.29.
To C6A C10U belongs 0.25.
As for A5U A30U, the self-cleavage was determined as 1.11.
To A5G G104A belongs 0.03.
For A5C A117U the value was 0.56; for A4G A13G, 1.27.
For U3C A47U, the self-cleavage stood at 0.68.
As to U3C A47G, the self-cleavage stood at 1.39.
For A4G A60U, the self-cleavage was determined as 1.76.
As to A5U A24G, the self-cleavage was found to be 1.12.
With A5C A52G, the self-cleavage turned out to be 0.46.
For the variant A4G G65C, the self-cleavage came out at 1.18.
For A4G G14A the value was 1.05.
For A4G C121A, the self-cleavage was found to be 2.03.
To A5U A67G belongs 1.6.
To A5U A67U belongs 0.99; to A4G A114C, 0.17.
For C6U A13G the value was 1.29; for U3C A94G, 2.02.
For the variant A5G C88U, the self-cleavage worked out at 1.02.
For A4G A5G the value was 1.25; for A5G G119U, 1.44; for U3C C107G, 0.09.
For the variant A5U A23U, the self-cleavage came out at 1.56.
As to U3C A78U, the self-cleavage is 0.51.
Take U3C A126U: the self-cleavage was 0.79.
For U3C A126G the value was 0.58; for A5U A116U, 0.35; for A4G U120A, 1.62.
A5G G80A: the self-cleavage amounted to 0.43.
As for U3A U103C, the self-cleavage was 0.76.
For U3C U108C the value was 0.04; for A5G U12C, 1.02; for A4G U38C, 1.15.
To C6A A110G belongs 0.08; to A4G C10U, 0.76.
For A5G U57C the value was 0.68; for C6G U132C, 0.79.
C6A A89C: the self-cleavage amounted to 1.1.
Consider A5C A110G, for which the self-cleavage came to 0.33.
To A5G A118C belongs 1; to U3G U26C, 0.94.
Regarding A5G A55G, the self-cleavage was found to be 1.15.
With A5U U38C, the self-cleavage came out at 1.27.
To A5G C128G belongs 0.8; to A5U U102C, 1.69.
As for A4C A111G, the self-cleavage amounted to 0.04.
For A4G U87C the value was 1.14; for A4G U19A, 0.78.
A4G U19C: the self-cleavage came out at 1.78.
Take A5G U120G: the self-cleavage was 0.39.
To C6A A95G belongs 0.79; to A4G U70A, 1.14; to A4G U100C, 1.42.
Turning to A5U A47C, the self-cleavage came out at 1.29.
Regarding A5C A33G, the self-cleavage is 0.87.
